Data from US6710165B2, “IgE-dependent histamine-releasing factor-binding peptides” (priority 2000, dated 2004).

Legend:
[1] = test system: (Na,K)ATPase large cytoplasmic loop; assay: Coimmunoprecipitation in COS-7 cells; type: binding; conditions: HA-tagged HRF
Method: Subsequently, to examine such interaction in mammalian cells, COS-7 cells were grown in DMEM^+ culture (Dulbeccos modified Eagles medium containing 10% fetal bovine serum, 100 units/ml penicillin and 100 units/ml streptomycin). The cells were transfected with N-terminal HA-tagged HRF constructs inserted to pCDNAneo vector (Invitrogen). COS-7 cell extracts were immunoprecipitated according to the method of Florkiewicz, et al. (1998). To detect the interactive protein, rabbit polyclonal anti-(Na,K)ATPase antibodies were added thereto.

RBL-2H3 cells = assay: Intracellular Na+ concentration (sodium green fluorescence); type: cell-based; conditions: IgE-sensitized RBL-2H3 cells, HRF 10˜20 μg/ml
Method: RBL-2H3 cells were loaded onto 24-well plate at 3.0×10^5˜1×10^6 cells/ml and cultivated at 37° for 18 hours. Hams F-12 culture (phenol red or serum-free 2 mM sodium bicarbonate and 10 mM HEPES, pH 7.3) was mixed with sodium green tetracetate dye (Molecular Probes, Eugene, Oreg.) at a final concentration of […] and the mixture was loaded onto the cells (Amorino and Fox, 1995). The cells were sensitized with 0.2 μg/ml of rat IgE (Serotec) for 45˜60 minutes and then, cultivated at room temperature for about 20˜60 minutes and washed three times with F-12 medium. Subsequently, thereto was added HRF (10˜20 μg/ml) in histamine releasing buffer and then, fluorescence was measured with microtiter reader (FL600, Bio-tek Instruments, Inc., Winooski, Vt.) at 485/530 nm for 15 minutes. The mixed solution of Na^+ and K^+ at an appropriate concentration was measured using gramicidin D (Sigma) as calibration (Amorino and Fox, 1995).

PC12 cells = assay: [3H]-dopamine release by HRF; type: cell-based
Method: It was examined whether or not HRF functions as the inhibitor of (Na,K)ATPase enzyme to stimulate neurotransmitters release. For this purpose, HRF was added to the culture solution of PC12 cells (Abu-Raya, et al., 1999) and then, changes in [^3H]-labeled dopamine release induced in basal and K^+-depolarized state by addition of HRF were measured. PC12 cells from passage numbers 5 to 15 were cultured in RPMI-1640 medium containing 10% horse serum, 5% fetal bovine serum, penicillin (100 U/ml) and streptomycin (100 μg/ml) with the supply of 5% CO2 at 37° C.
To measure [^3H]-dopamine release, one day prior to the experiment, the cells ([…]) were cultured in 12-well dish coated with poly-L-lysine (10 μg/ml). The fresh medium containing [^3H]-dopamine (0.5 μCi/ml) was loaded thereto and then, the cells were further cultured at 37° C. for 3 hours. They were washed 2 or 3 times with 1 ml of PBS(1×) per well. To Krebs Ringer (KR) buffer (125 mM NaCl, 5 mM KCl, 2 mM CaCl2, 10 mM HEPES, 1.2 mM MgSO4, 1.2 mM KH2PO4, 6 mM glucose, 5 mM NaHCO3), ascorbic acid (0.2 mg/ml), pargyline (0.6 mg/ml) and despiramine (2 μM) were added. Each 1 ml of the mixture was loaded with HRF and the reaction was proceeded at 37° C. for 20 minutes. The release in the depolarization state was measured in KR buffer containing 50 mM KCl, and in Ca^2+-free medium, was measured in KR buffer prepared by removal of CaCl2 with the addition of 0.5 mM EGTA.
Upon completion of the reaction, the radioactivity of the released dopamine was measured after centrifuging the culture solution at 4° C., 1,000×g for 10 minutes. The cells were solubilized with 0.5 N NaOH and then, the radioactivity within the tissue was measured. The release rate (%) of dopamine was calculated by [radioactivity of the supernatant/(radioactivity of the supernatant+radioactivity within the tissue)×100].
As compared with the increase in basal release, the increase in K^+-stimulated release was shifted to left, but the extent thereof was relatively small.

B1: HRF: recombinant full-length rat HRF overexpressed in E. coli; protein consisting of 172 amino acids (protein)
chain: MIIYRDLISHDELFSDIYKIREIADGLCLEVEGKMVSRTEGAIDDSLIGGNASAEGPEGEGTESTVVTGVDIVMNHHLQETSFTKEAYKKYIKDYMKSLKGKLEEQKPERVKPFMTGAAEQIKHILANFNNYQFFIGENMNPDGMVALLDYREDGVTPFMIFFKDGLEMEKC
modifications: left off: small tags and cut ends
notes: recombinant full-length rat HRF overexpressed in E. coli; protein consisting of 172 amino acids
interaction with (Na,K)ATPase large cytoplasmic loop, coimmunoprecipitation [1]: interacted with (Na,K)ATPase large cytoplasmic loop
effect on intracellular Na+ concentration (RBL-2H3 cells): increased the intracellular Na^+ concentration
HRF concentration at which dopamine release was steeply increased and the cells detached and reached to death (PC12 cells): ≥ 30 µg
K+-stimulated dopamine release in depolarization (PC12 cells; 50 mM KCl): dose-dependently increased K^+-stimulated dopamine release
basal release of dopamine (PC12 cells; basal state): dose-dependently increased the basal release of dopamine
dopamine release at HRF 10 μg (PC12 cells; basal, HRF 10 μg): increased to the extent similar to the K^+-stimulated release in depolarization
